For this assay, the target named is TMPRSS2 on cells (UniProt O15393). The assay is described as follows: cell-based or functional assay.

Trypstatin (AMBP 284-344) (peptide): the IC50, MERS-CoV spike pseudoparticle entry into CaCo-2 cells (luciferase) amounted to 78 nM and the IC50, SARS-CoV spike pseudoparticle entry into CaCo-2 cells (luciferase) came out at 31 nM.

These data come from patent publication EP4545091A1 (priority 2023, dated 2025).
